Measurements reported in PMC10703350, “Fibril structures of TFG protein mutants validate the identification of TFG as a disease-related amyloid protein by the IMPAcT method” (PNAS Nexus, 2023).
Numbering of substitutions follows the chain as printed. In names and notes the source's numbering stands.

Molecular target: the molecule itself
Test: cryo-EM structure; amyloid fibrils of the purified construct (formed at 50 μM in PBS, 37°C, shaking); helical reconstruction in RELION, de novo model of the fibril core

B1: TFG low-complexity domain (residues 237-327) with the G269V mutation conjugated to mCherry (domain or fragment, human, UniProt Q92734 237-327, looked up)
chain: GQIEGQMYQQYQQQAGYGAQQPQAPPQQPQQYVIQYSASYSQQTGPQQPQQFQGYGQQPTSQAPAPAFSGQPQQLPAQPPQQYQASNYPAQ
notes: TRK-fused gene protein (TFG), human, low-complexity domain residues 237-327 with the disease-related (CMT2) mutation G269V; PDB 8TEQ holds only the ordered fibril core (262-290 and 265-290); also called mC-TFG-LCD-G269V; G269V mutant; source: E. coli BL21(DE3) gold, purified (Ni-NTA, size exclusion chromatography), dialyzed into PBS; not shown: mCherry, N-terminal, kept
B1: binds.

B2: TFG low-complexity domain (residues 237-327) with the P285L mutation conjugated to mCherry (domain or fragment, human, UniProt Q92734 237-327, looked up)
chain: B1 chain with V33G, P49L
notes: TRK-fused gene protein (TFG), human, low-complexity domain residues 237-327 with the disease-related (HMSN-P) mutation P285L; PDB 8TER holds only the ordered fibril core (265-299); also called mC-TFG-LCD-P285L; P285L mutant; source: E. coli BL21(DE3) gold, purified (Ni-NTA, size exclusion chromatography), dialyzed into PBS; not shown: mCherry, N-terminal, kept
B2: binds.
